Data set [1] addresses S. agalactiae γ-glutamylcysteine synthetase-glutathione synthetase (γ-GCS-GS) with an N-terminal His8-tag (Streptococcus agalactiae) (UniProt Q8DXM9). The experiment in a line: cell-based or functional assay.
A further data set relates to N[C@@H](CS)C(=O)O. Kind of data set: purified protein, by the assay type. Particulars: other: substrate Km, γ-GCS activity.
The next data set deals with T1, S. agalactiae γ-GCS-GS (Streptococcus agalactiae serotype V, UniProt Q8DXM9).
T1 sequence (Q8DXM9 1-750): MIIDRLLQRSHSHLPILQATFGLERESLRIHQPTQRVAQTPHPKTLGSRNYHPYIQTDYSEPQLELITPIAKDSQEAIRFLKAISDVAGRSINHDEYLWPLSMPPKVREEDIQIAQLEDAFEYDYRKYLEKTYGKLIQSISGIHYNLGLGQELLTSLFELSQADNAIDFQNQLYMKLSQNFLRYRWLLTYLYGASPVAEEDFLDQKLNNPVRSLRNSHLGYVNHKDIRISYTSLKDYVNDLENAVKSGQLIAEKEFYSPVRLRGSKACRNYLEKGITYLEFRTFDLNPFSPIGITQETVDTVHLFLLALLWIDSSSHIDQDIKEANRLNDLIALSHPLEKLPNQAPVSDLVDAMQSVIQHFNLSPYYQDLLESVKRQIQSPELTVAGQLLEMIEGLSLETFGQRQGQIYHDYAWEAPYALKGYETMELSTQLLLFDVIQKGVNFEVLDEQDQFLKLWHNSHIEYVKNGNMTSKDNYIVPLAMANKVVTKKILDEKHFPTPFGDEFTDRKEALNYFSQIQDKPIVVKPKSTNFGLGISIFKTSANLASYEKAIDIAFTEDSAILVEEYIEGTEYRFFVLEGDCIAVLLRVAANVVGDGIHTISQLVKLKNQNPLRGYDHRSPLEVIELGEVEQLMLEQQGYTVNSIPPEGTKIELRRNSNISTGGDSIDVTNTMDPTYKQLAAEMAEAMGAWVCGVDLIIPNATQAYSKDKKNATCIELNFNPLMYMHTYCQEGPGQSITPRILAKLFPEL
Kind of data set: γ-GCS activity assay based on ADP formation, S. agalactiae γ-GCS-GS. It is filed as biochemical. On the set-up: corresponded to full-length S. agalactiae γ-GCS-GS with an N-terminal His8-tag; made in house; host or cells: E. coli SG13009 with pQE30-gshAB plus pREP4 or pRARE. The method, then:
In Table 1, a unit was defined as the amount of enzyme activity required to catalyze the formation of 1 μmol of product per hour. Specific activity was shown as units per mg protein. Activity was determined at 37° C. based on ADP formation in reaction mixtures containing L-glutamate and L-cysteine and using pyruvate kinase and lactate dehydrogenase to couple ADP formation to NADH oxidation, which was monitored at 340 nm.
Exp. Purif. 13, 268-276 (1998).
At set time points ranging from one to 30 minutes, 5 μl aliquots were removed and assayed for residual enzyme activity using the standard γ-GCS assay based on ADP formation.

The test system of data set [2] is vaginal colonization with S. agalactiae (Group B Streptococcus). Conditions: one 500 mg capsule by mouth every 6 hours from 2 days before due date. The source says:
A person who is allergic to penicillin is seen for prenatal screening prior to delivery of their first child.

Data set [3] has as its system urinary tract infection caused by E. faecalis. Kind of data set: Treatment of urinary tract infection in a patient. It is filed as in vivo, human. The text has this:
A person weighing 50 kg presents to their physician with a urinary tract infection caused by E. faecalis. […] Two months later they return with a recurrence of the urinary tract infection due to E. faecalis.

The target of the next data set is E. coli γ-GCS (Escherichia coli, UniProt P0A6W9). Particulars: cited from earlier work.
The target in another data set is T2, Human γ-GCS (Homo sapiens, UniProt P48506).
T2 sequence (P48506 1-637): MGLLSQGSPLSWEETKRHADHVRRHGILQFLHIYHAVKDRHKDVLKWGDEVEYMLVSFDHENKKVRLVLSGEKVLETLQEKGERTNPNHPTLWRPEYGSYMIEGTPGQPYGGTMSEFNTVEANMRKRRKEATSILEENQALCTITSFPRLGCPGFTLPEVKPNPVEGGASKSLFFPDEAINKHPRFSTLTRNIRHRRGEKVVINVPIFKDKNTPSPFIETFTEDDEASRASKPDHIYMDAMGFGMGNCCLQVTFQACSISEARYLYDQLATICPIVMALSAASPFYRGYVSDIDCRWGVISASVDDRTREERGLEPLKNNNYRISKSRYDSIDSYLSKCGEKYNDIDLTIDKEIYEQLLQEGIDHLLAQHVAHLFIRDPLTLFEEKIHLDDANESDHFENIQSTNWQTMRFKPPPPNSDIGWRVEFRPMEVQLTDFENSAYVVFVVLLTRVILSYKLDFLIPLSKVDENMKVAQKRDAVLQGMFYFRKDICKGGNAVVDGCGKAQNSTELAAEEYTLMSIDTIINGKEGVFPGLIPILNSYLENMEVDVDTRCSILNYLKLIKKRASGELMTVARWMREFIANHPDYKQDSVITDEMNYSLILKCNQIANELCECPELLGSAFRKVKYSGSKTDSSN
T2 sequence (P48507 1-274 partner): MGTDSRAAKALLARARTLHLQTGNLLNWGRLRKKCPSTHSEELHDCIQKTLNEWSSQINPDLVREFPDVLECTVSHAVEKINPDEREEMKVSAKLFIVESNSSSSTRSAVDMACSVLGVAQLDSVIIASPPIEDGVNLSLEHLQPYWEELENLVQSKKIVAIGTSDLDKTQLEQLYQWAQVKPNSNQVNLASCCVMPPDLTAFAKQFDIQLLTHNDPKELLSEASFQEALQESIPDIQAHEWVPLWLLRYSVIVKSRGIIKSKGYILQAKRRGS
Conditions: cited from earlier work.

Data set [4] relates to N[C@@H](CCC(=O)N[C@@H](CS)C(=O)O)C(=O)O. The experiment in a line: purified protein, by the assay type. Conditions: other: substrate Km, GS activity.
Data set [5] deals with T3, E. faecalis γ-GCS-GS (Enterococcus faecalis, UniProt Q82ZG8). The experiment in a line: GS activity of E. faecalis γ-GCS-GS. Conditions: purified enzyme.
Data set [6] addresses T3, E. faecalis γ-GCS-GS. The experiment in a line: γ-GCS activity of E. faecalis γ-GCS-GS.
Substrate in data set [7]: N[C@@H](CS)C(=O)O
Kind of data set: γ-GCS activity assay based on ADP formation, S. agalactiae γ-GCS-GS. It is filed as biochemical, Streptococcus agalactiae. Conditions: other: substrate Km, pH 8.2, 37.0 °C.

Substrate in data set [8]: CC[C@H](N)C(=O)OC(=O)CC[C@H](N)C(=O)O
The experiment in a line: cells, lysate or membranes named. Conditions: other: substrate Km, GS activity; pH 7.4.

Substrate in data set [9]: N[C@@H](CCC(=O)N[C@@H](CS)C(=O)O)C(=O)O
The experiment in a line: cells, lysate or membranes named. Conditions: other: substrate Km, GS activity; pH 7.4.

Substrate in data set [10]: NCC(=O)O
The experiment in a line: cells, lysate or membranes named. Particulars: other: substrate Km, GS activity; pH 7.4.

Sequence of E. coli γ-GCS (P0A6W9 whole entry): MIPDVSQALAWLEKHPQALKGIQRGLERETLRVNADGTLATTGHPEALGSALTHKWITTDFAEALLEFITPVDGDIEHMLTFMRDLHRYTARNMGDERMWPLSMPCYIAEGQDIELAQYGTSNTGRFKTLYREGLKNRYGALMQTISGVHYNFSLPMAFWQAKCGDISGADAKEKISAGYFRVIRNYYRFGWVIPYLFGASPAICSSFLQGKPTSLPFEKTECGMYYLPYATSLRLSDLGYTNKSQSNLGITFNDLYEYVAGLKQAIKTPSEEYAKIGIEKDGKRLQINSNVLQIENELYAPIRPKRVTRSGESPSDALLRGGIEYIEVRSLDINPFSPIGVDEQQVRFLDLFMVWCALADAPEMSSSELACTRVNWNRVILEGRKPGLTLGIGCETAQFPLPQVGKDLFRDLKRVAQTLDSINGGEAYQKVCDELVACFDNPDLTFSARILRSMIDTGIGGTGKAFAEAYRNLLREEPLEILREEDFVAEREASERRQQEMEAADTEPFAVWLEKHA

In turn, “Glutathione (L-γ-glutamyl-L-cysteinylglycine) (peptide)” gave an inhibition of γ-GCS activity in data set [1] of less than 5%.

With “S. mutans γ-GCS-GS (Streptococcus mutans UA159)”, the Km in the data set with N[C@@H](CS)C(=O)O was 144 ± 4 µM.

For the molecule `CCCC[S@](=N)(=O)CC[C@H](N)C(=O)O` [L-S—BSO, L-buthionine-S-sulfoximine, reference compound], the dissociation constant Kd at S. agalactiae γ-GCS-GS was 2800 ± 300 µM; at E. coli γ-GCS, 66 µM; on Human γ-GCS it was 25 µM. Further, the Ki at S. agalactiae γ-GCS-GS was 4900 ± 200 µM; at E. coli γ-GCS, 66 µM; on Human γ-GCS, 25 µM. Further, the inactivation rate constant (kinact) on S. agalactiae γ-GCS-GS was 0.00217 s⁻¹; at E. coli γ-GCS it was approximately 0.30 min⁻¹; on Human γ-GCS, 3.9 min⁻¹. Moreover, the outcome of colonization in [2] is reported as “no S. agalactiae bacteria are detected”. For the same molecule, the outcome of infection in data set [3] (one 500 mg capsule by mouth every 6 hours for two days) is recorded as “without resolution of the infection”; in [3] (two 500 mg capsules every 6 hours, fourth day) it was “urine is free of detectable bacteria”. Besides, the t1/2 on E. coli γ-GCS (half-life for inactivation) was 2.3 min; at Human γ-GCS (half-life for inactivation), 0.183 min.

On to “E. faecalis γ-GCS-GS (Enterococcus faecalis V583)”, for which the results for the Km (in data set [4]; in the data set with N[C@@H](CS)C(=O)O) were 4300 ± 50 µM and 192 ± 14 µM, respectively.

B1: E. faecalis γ-GCS-GS: bifunctional γ-GCS-GS enzyme of E. faecalis (gshAB, EF3089; SEQ ID NO:12) expressed in E. coli (protein, listed as Enterococcus faecalis)
chain: MNYRELMQKKNVRPYVLMARFGLEKENQRSTREGLLATTEHPTVFGNRSYHPYIQTDFSETQLELITPVANSGTEMLRFLDAIHDVARRSIPEDEMLWPLSMPPQLPTKDEEIKIAKLDQYDAVLYRRYLAKEYGKRKQMVSGIHFNFEYDQALIQQLYDEQSEVTDCKQFKTKVYMKVARNFLRYRWLITYLFGASPVSEDRYFRVYDDQPQEPVRSIRNSTYGYRNHDNVKVSYASLERYLEDIHRMVENGLLSEEKEFYAPVRLRGGKQMSDLPKTGIRYIELRNLDLNPFSRLGIVEDTVDFLHYFMLYLLWTDEKEEADEWVKTGDIFNEQVALGHPHETIKLIAEGDRIFSEMIDMLDALGIRKGKEVVGKYYQQLRNPQDTVSGKMWTIIQENSNSELGNIFGNQYQSMAFERPYQLAGFREMELSTQIFLFDAIQKGLEIEILDEQEQFLKLQHGEHIEYVKNANMTSKDNYVVPLIMENKTVTKKILSAAGFHVPGGEEFSSFIEAQEAHLRYANKAFVVKPKSTNYGLGITIFKEGASLEDFTEALRIAFKEDTAVLIEEFLPGTEYRFFVLDNDVKAIMLRVPANVTGDGKHTVEELVAAKNSDPLRGTNHRAPLELIQLNDLEKLMLKEQGLTIYSVPEKEQIVYLRENSNVSTGGDSIDMTDVIDDSYKQIAIEAVAALGAKICGIDLIIPDKDVKGTRDSLTYGIIEANFNPAMHMHVYPYAGQGRRLTMDVLKLLYPEVVQ
B1: in the data set with E. faecalis γ-GCS-GS [5], the GS specific activity stood at 2297 units/mg. For the same molecule, the “ratio of activities (γ-GCS to GS)” value in the data set with E. faecalis γ-GCS-GS [6] is “about 0.23”. Besides, the γ-GCS specific activity with E. faecalis γ-GCS-GS [6] (purified enzyme) is reported as 240 units/mg.

B2: S. agalactiae γ-GCS-GS (Streptococcus agalactiae 2603V/R) (protein)
chain: T1 sequence (Q8DXM9 1-750)
notes: corresponded to full-length S. agalactiae γ-GCS-GS with an N-terminal His8-tag; made in house; host or cells: E. coli SG13009 with pQE30-gshAB plus pREP4 or pRARE
For B2, the Km in data set [7] is listed as 160 ± 9 μM μM; in data set [8] it was 11.5 ± 1.5 mM mM; in data set [9], 3.9 ± 0.5 mM mM; in [10], 6 ± 0.5 mM mM. The Vmax in [7] stood at 1126 ± 21 units/mg; in data set [8] it was 2648 ± 597 units/mg units/mg; in data set [9], 2264 ± 896 units/mg units/mg; in data set [10], 2326 ± 584 units/mg.

A word on the Kd: it is the free concentration of one partner at which half of the binding sites on the other are occupied at equilibrium, for simple one-to-one binding. As a reminder, the Ki is the equilibrium dissociation constant of an inhibitor or competing ligand from its target. A word on the kinact: it is the maximal first-order rate at which the target is inactivated.

These data come from patent publication US20080194701A1, “Bifunctional Enzyme with Y-Glutamylcysteine Synthetase and Glutathione Synthetase Activity and Uses Thereof” (priority 2004, published 2008).
